The source of these data is patent publication US20100113575A1.

The target in assay [1] is autoprocessed, secreted PCSK9-152FLAG-V5/His (human) (UniProt Q8NBP7). In words: TR-FRET on cell media, 50,000 cells per well.
A further assay deals with LDLR (UniProt P01130). In words: cell-based or functional assay.

Take Eu+3-labeled anti-FLAG M1 antibody: in assay [1], the window of the TR-FRET ratio against PCSK9-152FLAG-V5/His-S386A came out at 3 fold.
Substance “purified nonprocessed D186A PCSK9 (from UniProt Q8NBP7 31-692) (enzyme)” returned an activity in PCSK9-dependent LDL uptake against processed PCSK9 with LDLR of 20 fold.
In the assay with LDLR, “purified processed D186A PCSK9 (with retained pro domain) (from UniProt A8T644 31-152; Q8NBP7 153-692) (enzyme)” registered an EC50, inhibition of diI-LDL uptake in HEK293 cells of 189 nM and a fold decrease in potency in the PCSK9-dependent LDL-uptake assay against WT PCSK9 of 4 fold.
